Test results reported in the supplement of paper PMC7877785.
± gives the uncertainty stated by the source.

Test: self-splicing fitness, log relative to wild type (ln ratio); higher = more splicing; Tetrahymena group I intron in knt gene, E. coli kanamycin selection, DiMSum; sequences stand for … in CUCUCU…GGAGGGAAAAGUUAUCAGGCAUGCACCUGGUAGCUAGUCUUUAAACCAAUAGAUUGCAUCGGUUUAAAAGGCAAGACCGUCAAAUUGCGGGAAAGGGGUCAACAGCCGUUCAGUACCAAGUCUCAGGGGAAACUUUGAGAUGGCCUUGCAAAGGGUAUGGUAAUAAGCUGACGGACAUGGUCCUAACCACGCAGCCAAGUCCUAAGUCAACAGAUCUUCUGUUGAUAUGGAUGCAGUUCACAGACUAAAUGUCGGUCGGGGAAGAUGUAUUCUUCUCAUAAGAUAUAGUCGGACCUCUCCUUAAUGGGAGCUAGCGGAUGAAGUGAUGCAACACUGGAGCCGCUGGGAACUAAUUUGUAUGCGAAAGUAUAUUGAUUAGUUUUGGAGUACUCGUGGUCG
Outline: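 Fitness was computed with DiMSum as the error-weighted combination of replicate fold changes, kanamycin versus none, each normalised to wild type. The library randomised all eight intron nucleotides of the P1ex region, with the intron placed in the knt kanamycin-resistance gene on pET-22b(+) in E. coli BL21(DE3). Six replicate transformations were grown overnight at 37°C or 30°C on LB agar with or without 25 μg/mL kanamycin, plus 100 μg/mL carbenicillin, 50 μM IPTG and 0.2% rhamnose. Pooled colonies were amplicon-sequenced on an Illumina HiSeq 2500.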

Row | Sequence | self-splicing fitness (ln) (30 °C) | self-splicing fitness (ln) (37 °C)
1 | ACACAGCAAUAUUACGCCCA | -1.49 ± 0.075 | -0.603 ± 0.073
2 | ACACAGCAAUAUUACGCCCU | -0.215 ± 0.072 | -0.0145 ± 0.077
3 | ACACAGCAAUAUUACGGCGU | -0.67 ± 0.07 | -0.414 ± 0.093
4 | ACACAGCAAUAUUACGGCUG | -2.88 ± 0.12 | -1.42 ± 0.1
5 | ACACAGCAAUAUUACGUAGU | -2.48 ± 0.077 | -1.71 ± 0.088
6 | ACACAGCAAUAUUACGUCGC | -4.02 ± 0.21 | -2.56 ± 0.17
7 | ACACAGCAAUAUUACGUGAC | -4.1 ± 0.13 | -2.05 ± 0.11
8 | ACACAGCAAUAUUACGUUCG | -0.803 ± 0.05 | -1.13 ± 0.064
9 | ACAGAGCAAUAUUACGAAGC | -2.69 ± 0.26 | –
10 | ACAGAGCAAUAUUACGACUC | -2.94 ± 0.33 | -2.47 ± 0.24
11 | ACAGAGCAAUAUUACGAUAA | -4.19 ± 0.46 | -2.51 ± 0.36
12 | ACAGAGCAAUAUUACGAUUC | -2.88 ± 0.27 | -1.72 ± 0.31
13 | ACAGAGCAAUAUUACGCAAC | – | -2.1 ± 0.41
14 | ACAGAGCAAUAUUACGCACC | -3.6 ± 0.47 | -2.04 ± 0.38
15 | ACAGAGCAAUAUUACGCCAA | -2.92 ± 0.22 | -2.78 ± 0.32
16 | ACAGAGCAAUAUUACGCCUU | -3.76 ± 0.42 | -1.9 ± 0.3
17 | ACAGAGCAAUAUUACGCGCC | -3.3 ± 0.36 | -1.83 ± 0.42
18 | ACAGAGCAAUAUUACGCGCU | – | -1.91 ± 0.2
19 | ACAGAGCAAUAUUACGCUCU | -3.01 ± 0.24 | -2.41 ± 0.49
20 | ACAGAGCAAUAUUACGCUUG | -1.62 ± 0.12 | -1.63 ± 0.17
21 | ACAGAGCAAUAUUACGGGAA | -2.54 ± 0.19 | -2.98 ± 0.34
22 | ACAGAGCAAUAUUACGGUCG | -2.29 ± 0.11 | -1.36 ± 0.16
23 | ACAGAGCAAUAUUACGGUCU | -3.77 ± 0.18 | -2.48 ± 0.15
24 | ACAGAGCAAUAUUACGUCAU | -3.71 ± 0.17 | -2.75 ± 0.27
25 | ACAGAGCAAUAUUACGUCCG | -3.65 ± 0.21 | -2.52 ± 0.27

Row | Sequence | self-splicing fitness (ln) (30 °C) | self-splicing fitness (ln) (37 °C)
26 | ACAGAGCAAUAUUACGUCGU | -3.11 ± 0.16 | -0.947 ± 0.15
27 | ACAGAGCAAUAUUACGUGCA | -3.73 ± 0.29 | -1.57 ± 0.25
28 | ACAGAGCAAUAUUACGUGCC | -3.54 ± 0.46 | –
29 | ACAGAGCAAUAUUACGUGUC | -3.27 ± 0.22 | -2.94 ± 0.38
30 | ACAUAGCAAUAUUACGAAUU | -3.3 ± 0.2 | -1.26 ± 0.14
31 | ACAUAGCAAUAUUACGACGA | -0.942 ± 0.068 | -0.294 ± 0.078
32 | ACAUAGCAAUAUUACGAGAA | -2.62 ± 0.29 | -2.35 ± 0.25
33 | ACAUAGCAAUAUUACGAGAG | -3.57 ± 0.28 | -2.55 ± 0.18
34 | ACAUAGCAAUAUUACGAGCG | -0.74 ± 0.12 | -0.0992 ± 0.12
35 | ACAUAGCAAUAUUACGAGGA | – | -2.56 ± 0.29
36 | ACAUAGCAAUAUUACGAGUG | -1.16 ± 0.073 | -1.05 ± 0.09
37 | ACAUAGCAAUAUUACGAUCC | -1.77 ± 0.15 | -0.941 ± 0.16
38 | ACAUAGCAAUAUUACGAUCU | 0.0431 ± 0.089 | -0.196 ± 0.1
39 | ACAUAGCAAUAUUACGCAUC | -3.98 ± 0.34 | -1.3 ± 0.14
40 | ACAUAGCAAUAUUACGCCAU | -3.25 ± 0.28 | -2.08 ± 0.22
41 | ACAUAGCAAUAUUACGCCGG | -0.986 ± 0.14 | 0.077 ± 0.21
42 | ACAUAGCAAUAUUACGCGGG | -3.09 ± 0.12 | -1.64 ± 0.13
43 | ACAUAGCAAUAUUACGCUGA | -1.47 ± 0.093 | -0.74 ± 0.12
44 | ACAUAGCAAUAUUACGGACC | -1.56 ± 0.12 | -1.84 ± 0.23
45 | ACAUAGCAAUAUUACGGGUU | -2.41 ± 0.08 | -1.77 ± 0.11
46 | ACAUAGCAAUAUUACGGUAG | -4.45 ± 0.42 | -2.89 ± 0.32
47 | ACAUAGCAAUAUUACGGUCA | -0.873 ± 0.13 | 0.165 ± 0.13
48 | ACAUAGCAAUAUUACGGUUA | -1.05 ± 0.098 | -0.751 ± 0.095
49 | ACAUAGCAAUAUUACGUAGU | -2.54 ± 0.098 | -2.32 ± 0.12
50 | ACAUAGCAAUAUUACGUCAC | -3.32 ± 0.18 | -2.93 ± 0.28

Row | Sequence | self-splicing fitness (ln) (30 °C) | self-splicing fitness (ln) (37 °C)
51 | ACAUAGCAAUAUUACGUCAG | -2.66 ± 0.13 | -3.18 ± 0.18
52 | ACAUAGCAAUAUUACGUCCA | -1.24 ± 0.14 | -0.641 ± 0.17
53 | ACAUAGCAAUAUUACGUGCC | -2.1 ± 0.15 | -0.986 ± 0.19
54 | ACAUAGCAAUAUUACGUUAA | -3.09 ± 0.19 | -1.36 ± 0.15
55 | ACAUAGCAAUAUUACGUUAC | -1.52 ± 0.22 | –
56 | ACCAAGCAAUAUUACGAACA | -2.91 ± 0.16 | -0.543 ± 0.089
57 | ACCAAGCAAUAUUACGAAUU | -3.46 ± 0.17 | -2.13 ± 0.14
58 | ACCAAGCAAUAUUACGAGCU | -1.62 ± 0.056 | -0.791 ± 0.072
59 | ACCAAGCAAUAUUACGAGGA | -3.15 ± 0.19 | -2.7 ± 0.16
60 | ACCAAGCAAUAUUACGAGGG | -2.88 ± 0.15 | -1.49 ± 0.12
61 | ACCAAGCAAUAUUACGCAUC | -3.18 ± 0.11 | -1.74 ± 0.11
62 | ACCAAGCAAUAUUACGCCAA | -1.97 ± 0.18 | -2.71 ± 0.23
63 | ACCAAGCAAUAUUACGCGCG | -1.5 ± 0.074 | -0.523 ± 0.081
64 | ACCAAGCAAUAUUACGCGUU | -1.91 ± 0.06 | -0.292 ± 0.075
65 | ACCAAGCAAUAUUACGCUUU | -2.41 ± 0.093 | -1.45 ± 0.1
66 | ACCAAGCAAUAUUACGGAUA | -2.56 ± 0.14 | -1.56 ± 0.12
67 | ACCAAGCAAUAUUACGGCGC | 0.119 ± 0.092 | -0.413 ± 0.11
68 | ACCAAGCAAUAUUACGGGGA | -2.16 ± 0.09 | -1.85 ± 0.098
69 | ACCAAGCAAUAUUACGGGUG | -1.05 ± 0.043 | -0.597 ± 0.059
70 | ACCAAGCAAUAUUACGGUAG | -4.33 ± 0.16 | -2.5 ± 0.14
71 | ACCAAGCAAUAUUACGUAAA | -2.62 ± 0.13 | -1.38 ± 0.16
72 | ACCAAGCAAUAUUACGUAGU | -2.49 ± 0.078 | -1.75 ± 0.088
73 | ACCAAGCAAUAUUACGUCAU | -3.16 ± 0.096 | -1.71 ± 0.09
74 | ACCAAGCAAUAUUACGUCGC | -3.25 ± 0.19 | -1.27 ± 0.14
75 | ACCAAGCAAUAUUACGUGCA | -0.837 ± 0.065 | -0.466 ± 0.074

Row | Sequence | self-splicing fitness (ln) (30 °C) | self-splicing fitness (ln) (37 °C)
76 | ACCAAGCAAUAUUACGUGGA | -2.92 ± 0.14 | -1.49 ± 0.11
77 | ACCAAGCAAUAUUACGUUGU | -2.74 ± 0.094 | -0.985 ± 0.085
78 | ACCCAGCAAUAUUACGAACG | -3.06 ± 0.14 | -1.4 ± 0.14
79 | ACCCAGCAAUAUUACGACCC | -1.06 ± 0.13 | 0.555 ± 0.18
80 | ACCCAGCAAUAUUACGCGCA | -0.821 ± 0.061 | -0.299 ± 0.075
81 | ACCCAGCAAUAUUACGCGGG | -3.6 ± 0.13 | -3.08 ± 0.16
82 | ACCCAGCAAUAUUACGCGUA | -0.599 ± 0.07 | -1.08 ± 0.062
83 | ACCCAGCAAUAUUACGCGUC | -2.16 ± 0.088 | -1.42 ± 0.11
84 | ACCCAGCAAUAUUACGCUGA | -1.63 ± 0.087 | -0.241 ± 0.092
85 | ACCCAGCAAUAUUACGCUGU | -1.86 ± 0.075 | -0.908 ± 0.098
86 | ACCCAGCAAUAUUACGCUUA | -0.429 ± 0.07 | -0.188 ± 0.078
87 | ACCCAGCAAUAUUACGGACU | -0.261 ± 0.044 | 0.0991 ± 0.059
88 | ACCCAGCAAUAUUACGGAUC | -2.82 ± 0.085 | -1.16 ± 0.089
89 | ACCCAGCAAUAUUACGGAUU | -0.86 ± 0.048 | -0.157 ± 0.061
90 | ACCCAGCAAUAUUACGGCAC | -0.669 ± 0.079 | 0.0747 ± 0.12
91 | ACCCAGCAAUAUUACGGUUG | -3.66 ± 0.18 | -2.3 ± 0.19
92 | ACCCAGCAAUAUUACGUAAC | -1.49 ± 0.065 | -1.17 ± 0.1
93 | ACCCAGCAAUAUUACGUGGG | -3.34 ± 0.11 | -2.3 ± 0.13
94 | ACCCAGCAAUAUUACGUUAG | -3.31 ± 0.11 | -3.09 ± 0.15
95 | ACCGAGCAAUAUUACGAAGC | -3.47 ± 0.36 | -2.76 ± 0.36
96 | ACCGAGCAAUAUUACGACCG | -2.92 ± 0.22 | -1.52 ± 0.21
97 | ACCGAGCAAUAUUACGAGCU | -2.94 ± 0.23 | -2.54 ± 0.28
